14 molecules from US20240376222A1 (University of Texas, published 2024) can be followed below.

The term Kd denotes the equilibrium constant for the complex coming apart. The koff is the rate constant with which the complex falls apart. Read a low koff as a long-lived complex. The kon is the second-order rate constant of association. A low value points to slow association.

The target in test [1] is T1, muTfR extracellular domain (ECD), His-tagged (mouse, UniProt Q62351 89-763).
T1 construct: extracellular domain; Bought protein (Sino Biological); also called muTfR-His; muTfR ECD
Nature of the test: BLI (Octet), IgG on Protein A sensor, muTfR-ECD-His in solution, 1:1 global fit. The source says:
FIG. 3. Illustrates the Kinetics and binding affinities of murine transferrin receptor (TfR) antibodies and represents the kinetic binding graphs determined using BLI method with Octet 96-Red instrument. Protein A sensors (Fortebio) were used to capture anti-TfR IgG. Individual purified TfR antibodies were loaded onto Protein A sensors and subject to a solution flow containing muTfR-ECD-His at designated concentrations: (indicated by the colored lines under each graphs) and for a defined time (shown in X-axis). After binding, the sensors were incubated in blank kinetics buffer to allow free dissociation of TfR for designated time.
FIG. 4: Illustrates the binding kinetics parameters were calculated by the software from Fortebio (version 11) using 1:1 binding model with global fitting. KD is calculated by kdis/kon as determined from the FIG. 3 data.

For test [2], the target named is T2, human TfR extracellular domain (ECD) (human, UniProt P02786 89-760).
T2 construct: extracellular domain; Bought protein; also called HuTfR; huTfR
The test can be described thus: BLI (Octet), IgG on Protein A sensor, huTfR-ECD-His in solution, 1:1 global fit. As for the experimental part:
FIG. 1. Illustrates the Kinetics and binding affinities of human transferrin receptor (TfR) antibodies and represents the kinetic binding graphs determined using BLI method with Octet 96-Red instrument. Protein A sensors (Fortebio) were used to capture anti-TfR IgG. During all incubation steps, sample temperature was set to room temperature with 1000 rpm shaking. Individual purified TfR antibodies were loaded onto sensors. After antibody capture, the antibody-loaded sensors were subject to a solution flow containing huTfR-ECD-His at designated concentrations: (indicated by the colored lines under each graphs) and for a defined time (shown in X-axis). After binding, the sensors were incubated in blank kinetics buffer to allow free dissociation of TfR for designated time. The binding kinetics parameters were calculated by the software from Fortebio (version 11) using 1:1 binding model with global fitting.
In general terms: Biolayer interferometry detects binding as a change in optical thickness at a sensor tip.

Test [3] concerns the target T2, human TfR extracellular domain (ECD). Nature of the test: phage ELISA, scFv phage on coated TfR, anti-M13-HRP, single point. (In an ELISA, binding on a coated surface is turned into a signal by an enzyme label.)
For test [4] the target is unchanged. The test is described as above. This is another data set of the same source.
In test [5] the target is T3, cynomolgus TfR extracellular domain (ECD) (cynomolgus).
T3 chain: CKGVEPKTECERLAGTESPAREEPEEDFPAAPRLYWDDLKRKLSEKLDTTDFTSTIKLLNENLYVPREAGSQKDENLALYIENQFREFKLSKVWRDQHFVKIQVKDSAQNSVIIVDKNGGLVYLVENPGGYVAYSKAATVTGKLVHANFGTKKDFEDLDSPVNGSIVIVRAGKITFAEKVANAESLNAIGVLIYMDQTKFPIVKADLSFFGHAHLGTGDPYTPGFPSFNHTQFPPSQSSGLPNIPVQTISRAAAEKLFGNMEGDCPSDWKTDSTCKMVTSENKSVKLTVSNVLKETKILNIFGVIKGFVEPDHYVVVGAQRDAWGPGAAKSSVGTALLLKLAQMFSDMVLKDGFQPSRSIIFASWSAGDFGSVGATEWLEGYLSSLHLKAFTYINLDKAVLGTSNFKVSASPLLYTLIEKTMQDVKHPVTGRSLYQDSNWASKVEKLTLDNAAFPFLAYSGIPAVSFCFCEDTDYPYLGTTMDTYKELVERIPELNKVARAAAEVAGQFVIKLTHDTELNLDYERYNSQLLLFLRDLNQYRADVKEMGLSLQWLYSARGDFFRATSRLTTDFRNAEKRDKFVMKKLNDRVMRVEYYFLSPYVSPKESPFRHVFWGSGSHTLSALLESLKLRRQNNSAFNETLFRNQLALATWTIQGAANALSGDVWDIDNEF
Nature of the test: Octet BLI, serial dilution of antigen.

The target in test [6] is T2, human TfR extracellular domain (ECD). Nature of the test: Octet BLI, serial dilution of antigen.

Where two headings read alike, the source gives them in different places. Where only a bound is given, the exact number is not on record here.

T1 sequence (Q62351 89-763): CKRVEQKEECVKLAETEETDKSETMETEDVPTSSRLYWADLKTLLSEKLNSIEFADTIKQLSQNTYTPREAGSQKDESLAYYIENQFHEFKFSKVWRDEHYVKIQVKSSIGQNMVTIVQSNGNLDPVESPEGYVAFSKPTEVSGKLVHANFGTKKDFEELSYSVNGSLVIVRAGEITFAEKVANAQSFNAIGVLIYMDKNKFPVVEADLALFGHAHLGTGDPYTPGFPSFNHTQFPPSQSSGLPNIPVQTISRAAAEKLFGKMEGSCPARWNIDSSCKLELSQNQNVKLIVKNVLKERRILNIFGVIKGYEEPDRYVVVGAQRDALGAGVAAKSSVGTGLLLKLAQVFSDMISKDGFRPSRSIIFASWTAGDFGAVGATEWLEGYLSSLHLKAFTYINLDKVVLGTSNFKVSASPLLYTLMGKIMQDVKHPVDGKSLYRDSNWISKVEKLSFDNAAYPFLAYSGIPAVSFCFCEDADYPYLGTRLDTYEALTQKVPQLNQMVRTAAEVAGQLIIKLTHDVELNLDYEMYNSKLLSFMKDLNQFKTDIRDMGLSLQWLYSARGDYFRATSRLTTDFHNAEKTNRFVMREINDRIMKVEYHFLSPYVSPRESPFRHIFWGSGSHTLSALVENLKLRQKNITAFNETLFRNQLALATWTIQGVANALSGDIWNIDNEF

B1: Ab59 (antibody, V domains shown)
VH: QVQLVESGGGVVQPGRSLRLSCAASGFTFSSYAMHWVRQAPGKGLEWVAVISYDGSNKYYADSVKGRFTISRDNSKNTLYLQMNSLRAEDTAVYYCARGGPYYDFWSDGMDVWGQGTMVTVSS
VL: QSVLTQPHSVSESPGKTVTISCTRSSGSIASNYVQWYQQRPGSSPTTVIYEDNQRPSGVPDRFSGSIDSSSNSASLTISGLKTEDEADYYCQSYDSSNYVFGTGTKVTVL
Take B1: in test [1], the Kd stood at 2.17 nM, the koff was found to be 0.000162 s⁻¹ and the kon stood at 74900 M⁻¹ s⁻¹.

B2: Ab1 (antibody, V domains shown)
VH: QVQLMQSGAEVKKPGSSVKVSCKASGGTFSSYAISWVRQAPGQGLEWMGRIIPILGIANYAQKFQGRVTITADKSTSTAYMELSSLRSEDTAVYYCARDRDTMVRGGMDVWGQGTMVTVSS
VL: QSALNQPPSASGSPGQSVTISCTGTGSDIGGHNYVSWYQQHPGKAPKLMIYDVSKRPSRVPDRFSGSKSGNTASLTVSGLQAEDEADYYCSSYAGSNVVFGAGTKVTVL
In test [2], B2 gave a Kd of 3.46 nM, a koff of 0.000398 s⁻¹ and a kon of 115000 M⁻¹ s⁻¹.

B3: Ab42 (antibody, V domains shown)
VH: QVQLVQSGAEVKKPGSSVKVSCKASGGTFSSYAISWVRQAPGQGLEWMGGIIPIFGTANYAQKFQGRVTITADESTSTAYMELSSLRSEDTAVYYCARGATRGMDVWGQGTLVTVSS
VL: DIVMTQSPSSLSASVGDRVTITCRASQSISNFLNWYQQKPGKAPKLLIYAASSLQSGVPSRFSGSRSGTDFTLTISSLQPEDFATYYCQQSSSIPLTFGGGTKLEIK
Turning to B3, in test [1], binding was characterised by a dissociation constant (Kd) of 2.09 nM, the koff worked out at 0.00013 s⁻¹ and the kon worked out at 62000 M⁻¹ s⁻¹.

B4: 8G5 (antibody, V domains shown)
VH: QVQLVQSGAEVKKPGASVKVSCKASGYTFTSYGISWVRQAPGQGLEWMGWISAYNGNTNYAQKLQGRVTMTTDTSTSTAYMELRSLRSDDTAVYYCARVGYYYYGMDVWGQGTTVTVSS
VL: QSVLTQPPSVSGAPGQRVTISCTGSSSNIGAGFDVHWYQQLPGTAPKLLIYANSNRPSGVPDRFSASKSGTSASLAITGLQAEDEADYYCQSYDRSLSGYVFGSGTKVTVL
notes: Human IgG1, converted from a phage scFv clone
As to B4, the binding result in test [3] is given as “binds”.

B5: 7B10 (antibody, V domains shown)
VH: QVQLVQSGAEVKKPGASVKVSCKASGYTFTSYGISWVRQAPGQGLEWMGWISAYNGNTNYAQKLQGRVTMTTDTSTSTAYMELRSLRSDDTAVYYCARDQKLLHILYYYGMDVWGQGTTVIVSS
VL: DIVMTQSPLSLSVTPGEPASISCRSSQSLLHSNGNNYLDWYLQKPGQSPQLLIYLGSNRASGVPDRFSGSGSGTDFSLKINKVEAEDVGVYYCMQALQTAYTFGQGTKLEIK
notes: as for B4
With B5, in test [3], the binding result is on record as “binds”.

B6: Ab5 (antibody, V domains shown)
VH: QVQLVESGGGLVQPGRSLRLSCAASGFTFDDYAMHWVRQAPGKGLEWVSGISWNSGSIGYADSVKGRFTISRDNAKNSLYLQMNSLRAEDTALYYCAKVSSQSGSVAGFDYWGQGTLVSVSS
VL: QPVLTQPPSASGTPGQRVTISCSGSSSNIGANYVYWYQQLPGTAPKLLIYRNNQRPSGVPDRFSGSKSGTSASLAIGGLRSEDEADYYCAGWDDSLSGVLFGGGTKVTVL
In test [1], B6 returned a Kd of 2.58 nM, a koff of 0.000135 s⁻¹ and a kon of 52300 M⁻¹ s⁻¹.

B7: Ab30 (antibody, V domains shown)
VH: EVQLVQSGGGLAQPGGSLRLSCAASGFTFSIYSMNWVRQAPGKGLEWVSYIGGGGTSIYYADSVKGRFTISRDNAKNSLSLQMNSLRAEDTGVYYCARGKPATGFDYWGQGTLVSVSS
VL: QSVLTQPRSVSGSPGQSVTISCTGTSSDVGGYNYVSWYQQHPGKAPKLMISEVSKRPSGVPDRFSGSKSGNTASLTVSGLQAEDEADYYCSSYAGGYTPYVFGTGTKVTVL
In test [2], B7 displayed a Kd of less than 0.001 nM, a koff of less than 1e-07 s⁻¹ and an association rate constant (kon) of 119000 M⁻¹ s⁻¹.

B8: Ab2 (antibody, V domains shown)
VH: QVQLVQSGAEVKKPGSSVKVSCKASGGTFSSYAISWVRQAPGQGLEWMGGIIPIFGTANYAQKFQGRVTITADESTSTAYMELSSLRSEDTAVYYCARFAFFSLASEDYWGQGTLVIVSS
VL: not shown
In test [1], B8 displayed an equilibrium dissociation constant (Kd) of 8.37 nM, a koff of 0.000145 s⁻¹ and a kon of 17300 M⁻¹ s⁻¹.

B9: 1B2 (antibody, V domains shown)
VH: QVQLVQSGAEVKKPGESLRISCKGSGYSFTSYWISWVRQMPGKGLEWMGRIDPSDSYTNYSPSFQGHVTISADKSISTAYLQWSSLKASDTAMYYCARHPLAYCGGDCQRGFDYWGQGTLVTVSS
VL: QPVLTQPPSVSVSPGQTARITCSGDKLREDLTSWYQQKPGQSPVLVIYQDSKRPSGIPARFSGSISGSTATLTISGTQAVDEADYYCQAWDNSVDYVFGTGTKVTVL
notes: as for B4
As for B9, the binding result in test [4] is reported as “binds”.

B10: 4G1 (antibody, V domains shown)
VH: EVQLLESGGGLIQPGGSLRLSCAASGFSVSSYYMNWVRQAPGKGLEWVSNTYTDGSTSYADSVGGRFSVSRDNSKNTLHLQMNSLRVEDTAVYYCAREGDGYNSGGLDYWGQGTLVTVSS
VL: DIQLTQSPASLSASLGDRVTITCRASQSIGTYLNWYQQRPGQAPKLLIFGTSSLQSGVPSRFSGSGSGTDFTLTISSLQPEDLATYYCQQTYITPRTFGQGTKVEIK
notes: as for B4
In test [5], B10 registered a Kd of less than 0.001 nM, a koff of less than 1e-07 s⁻¹ and a kon of 94500 M⁻¹ s⁻¹. In test [6], the Kd is less than 0.001 nM, the koff was less than 1e-07 s⁻¹ and the on-rate constant (kon) was 79900 M⁻¹ s⁻¹.

B11: muTfR Ab4 (antibody, V domains shown)
VH: EVQLVESGGGLVKPGGSLRLSCAASGFTFSWYTMNWVRQAPGKGLEWVSSISSSSSDMYYADSVKGRFTISRDNAKNSLYLQIDSLRAEDTAVYYCARAHYYDSTSLNHFYGMDVWGQGTTVTVSS
VL: QSVLTQPPSVSVAPGKTARITCGGNNIGSRTVHWYQQRPGQAPMLVVSDDNDRPSGIPERFSGSNSGNTATLTITRVEAGDEADYYCQVWDSSSDHLVFGGGTQLTVL
modifications: Biotinylated when used as the probe in the competition ELISA; the sites are not stated and the letters do not carry them.
notes: also called anti-muTfR Ab4; biotinylated Ab4
On to B11, for which, in test [1], binding was put at a Kd of 5.03 nM, the koff turned out to be 0.000391 s⁻¹ and the kon was 77700 M⁻¹ s⁻¹.

B12: 7A1 (antibody, V domains shown)
VH: QVQLVQSGAEVKKPGSSVKVSCKASGGTFSSYAISWVRQAPGQGLEWMGGIIPIFGTANYAQKFQGRVTITADESTSTAYMELSSLRSEDTAVYYCARSGYYNDAFDIWGQGTMVTVSS
VL: QSALTQPASVSGSPGQSITISCTGTNSDIGGYNYVSWYQQHPGKAPKLMIYEVSNRPSGVSNRFSGSKSGNTASLTISGLQAEDEAHYYCSSYTSSSTLVFGGGTKVTVL
notes: as for B4
Regarding B12, the binding result in test [3] is on record as “binds”.

B13: 8A5 (antibody, V domains shown)
VH: QVQLVQSGAEVKKPGESLRISCKGSGYSFTSYWISWVRQMPGKGLEWMGRIDPSDSYTNYSPSFQGHVTISADKSISTAYLQWSSLKASDTAIYYCARARTWFDAFDIWGQGTTVTVSS
VL: QAVVTQPPSASGTPGQRVTISCSGGSSNIGRYSVNWYQQLPGTAPKLLINSNIQRPSGVPDRFSGSKSGTSASLAISGLQSEDEADYHCAAWDDSLKGWVFGGGTKVTVL
notes: as for B4
For B13, the binding result in test [3] is on record as “binds”.

B14: 5B6 (antibody, V domains shown)
VH: PVLLVQSGAEVKKPGSSVKVSCKASGGTFSSYAISWVRQAPGQGLEWMGGIIPIFGTANYAQKFQGRVTITADESTSTAYMELSSLRSEDTAVYYCAVSIFGVVIPLDYWGQGTLVIVSS
VL: QPVLTQSPSVSLAPGQTAKITCGGTNIGRKSVHWYQQKPGQAPVMVIYYDSDRPSGIPERFAGSNSGNTATLTISRVEAGDEAVYYCQVWDSSSASGVFGGGTKVTVL
notes: as for B4
In test [5], B14 displayed a Kd of less than 0.001 nM, a koff of less than 1e-07 s⁻¹ and a kon of 87900 M⁻¹ s⁻¹. In test [6], this molecule displayed a Kd of 0.575 nM, a koff of 2.98e-05 s⁻¹ and a kon of 51800 M⁻¹ s⁻¹.
